The source of these data is PMC5974431.

For the experiment, the target named is T1, V1-TRF2, Q15554.
T1 chain: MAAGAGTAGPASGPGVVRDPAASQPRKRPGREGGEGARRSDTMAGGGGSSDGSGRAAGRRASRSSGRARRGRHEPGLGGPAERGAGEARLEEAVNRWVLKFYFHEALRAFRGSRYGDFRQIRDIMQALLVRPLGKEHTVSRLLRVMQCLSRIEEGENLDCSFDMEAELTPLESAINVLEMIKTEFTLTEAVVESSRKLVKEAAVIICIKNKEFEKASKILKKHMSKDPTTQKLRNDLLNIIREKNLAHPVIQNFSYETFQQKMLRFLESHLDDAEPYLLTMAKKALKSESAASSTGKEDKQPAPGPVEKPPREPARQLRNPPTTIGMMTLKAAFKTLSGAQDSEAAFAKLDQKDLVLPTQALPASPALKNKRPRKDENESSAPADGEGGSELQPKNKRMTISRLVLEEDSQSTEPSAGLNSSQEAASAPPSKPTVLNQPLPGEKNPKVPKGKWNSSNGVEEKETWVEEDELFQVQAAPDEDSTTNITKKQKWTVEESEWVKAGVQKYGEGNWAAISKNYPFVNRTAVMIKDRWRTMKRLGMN
The experiment in a line: protein fragment complementation assay (PCA), split Venus. As to conditions: chain shown with the change; coexpression by cotransfection; three separate transfections each measured in triplicate; parent: est. 12500; read off a plot.

B1: TIN2L-V2, Q9BSI4-1 R282H (protein)
chain: MATPLVAGPAALRFAAAASWQVVRGRCVEHFPRVLEFLRSLRAVAPGLVRYRHHERLCMGLKAKVVVELILQGRPWAQVLKALNHHFPESGPIVRDPKATKQDLRKILEAQETFYQQVKQLSEAPVDLASKLQELEQEYGEPFLAAMEKLLFEYLCQLEKALPTPQAQQLQDVLSWMQPGVSITSSLAWRQYGVDMGWLLPECSVTDSVNLAEPMEQNPPQQQRLALHNPLPKAKPGTHLPQGPSSRTHPEPLAGRHFNLAPLGRRRVQSQWASTRGGHKEHPTVMLFPFRNLGSPTQVISKPESKEEHAIYTADLAMGTRAASTGKSKSPCQTLGGRALKENPVDLPATEQKENCLDCYMDPLRLSLLPPRARKPVCPPSLCSSVITIGDLVLDSDEEENGQGEGKESLENYQKTKFDTLIPTLCEYLPPSGHGAIPVSSCDCRDSSRPL
For B1, the response (fluorescence activity minus background) amounted to 5900.

B2: TIN2L-V2, Q9BSI4-1 D391K; D395K (protein)
chain: MATPLVAGPAALRFAAAASWQVVRGRCVEHFPRVLEFLRSLRAVAPGLVRYRHHERLCMGLKAKVVVELILQGRPWAQVLKALNHHFPESGPIVRDPKATKQDLRKILEAQETFYQQVKQLSEAPVDLASKLQELEQEYGEPFLAAMEKLLFEYLCQLEKALPTPQAQQLQDVLSWMQPGVSITSSLAWRQYGVDMGWLLPECSVTDSVNLAEPMEQNPPQQQRLALHNPLPKAKPGTHLPQGPSSRTHPEPLAGRHFNLAPLGRRRVQSQWASTRGGHKERPTVMLFPFRNLGSPTQVISKPESKEEHAIYTADLAMGTRAASTGKSKSPCQTLGGRALKENPVDLPATEQKENCLDCYMDPLRLSLLPPRARKPVCPPSLCSSVITIGKLVLKSDEEENGQGEGKESLENYQKTKFDTLIPTLCEYLPPSGHGAIPVSSCDCRDSSRPL
Turning to B2, the response (fluorescence activity minus background) stood at 5700.
